Experimental data: US12497460B2, “Anti-MSR1 antibodies and methods of use thereof” (REGENERON PHARMACEUTICALS, INC., priority 2018, dated 2025)
Substitutions are numbered along the chain they refer to. Names and notes keep the numbering of the source.

T1: PMA-treated THP-1 cells (endogenously expressed human MSR1) (Homo sapiens, UniProt P21757)
T1 construct: endogenous in cells; host or cells: THP-1 cells differentiated with PMA
T1 sequence (P21757 1-451): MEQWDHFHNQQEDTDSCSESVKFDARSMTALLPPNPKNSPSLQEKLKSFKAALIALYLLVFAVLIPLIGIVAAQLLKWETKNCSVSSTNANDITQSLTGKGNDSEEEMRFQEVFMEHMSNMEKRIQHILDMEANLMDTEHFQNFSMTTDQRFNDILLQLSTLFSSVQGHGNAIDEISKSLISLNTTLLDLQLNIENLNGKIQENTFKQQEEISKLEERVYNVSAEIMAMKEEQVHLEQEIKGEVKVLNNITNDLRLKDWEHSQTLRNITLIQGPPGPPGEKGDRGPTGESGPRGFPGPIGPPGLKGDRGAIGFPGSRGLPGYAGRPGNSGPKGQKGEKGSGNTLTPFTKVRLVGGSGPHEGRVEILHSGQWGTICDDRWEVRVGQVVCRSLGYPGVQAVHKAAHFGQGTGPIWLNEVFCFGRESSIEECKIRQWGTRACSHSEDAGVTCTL

T2: MSR1-mediated Dil-OxLDL uptake in HEK293.Myc.hMSR1 cells (Homo sapiens, UniProt P21757)
T2 construct: expressed in transfected cells; host or cells: HEK293 (lentiviral transduction, hygromycin selection)
T2 sequence (P21757 1-451): T1 sequence (P21757 1-451)

T3: MSR1 on differentiated THP-1 cells (Homo sapiens, UniProt P21757)
T3 construct: endogenous in cells; host or cells: THP-1 cells differentiated with PMA
T3 sequence (P21757 1-451): T1 sequence (P21757 1-451)

B1: H1H27739P-N297Q: anti-MSR1 antibody "made with an N297Q single point mutation in human Fcγ portion" (antibody, V domains shown)
VH: EVQLVESGGGLVQPGGSLRLSCTASGFTFSSYAMSWVRQAPGKGLEWVSAISGTGSSTYFTDSVKGRFAISRDNSKNTLYLQMNSLRAEDTAVYYCAKDGEWLSTVTLFDYWGQGTLVTVSS
VL: EIVMTQSPATLSVSPGERATLSCRASQSVSSNLAWYQQKPGQAPRLLIYGASTRATGIPARFSGSGSGTDFTLTISSLQSEDFALYYCQQYFIWPPHPTFGPGTKVDIKR
B2: H1H27731P-N297Q: one of "Twelve anti-MSR1 antibodies"; "made with an N297Q single point mutation in human Fcγ portion" (antibody, V domains shown)
VH: QLQLQESGPGLVKPSETLSLTCTVSGGSISRISYYWGWIRQPPGKGLEWIGSIYDSGSTYYNPSLKSRVTISIDTSKNQFSLKLSSVTAADTAVYYCVRYSSSSAFAFDYWGQGTLVTVSS
VL: DIQMTQSPSSVSASVGDRVTITCRASQGISSWLAWYQQKPGKAPKLLIYAASSLQSGVPSRFSGSGSGTDFTLTISSLQPEDFATYYCQQANSFPFTFGPGTKVDIKR
B3: H1H27754P-N297Q: one of "Twelve anti-MSR1 antibodies"; "made with an N297Q single point mutation in human Fcγ portion" (antibody, V domains shown)
VH: EVQLVESGGGLVQPGGSLRLSCAASGFTFRTYAMTWVRQAPGKGLDWVSAITGDGGNTYYADSVKGRFTISRDNSKNTLYLQMNSLRAEDTAIYYCAKDQRFSFALYYFDYWGQGTLVTVSS
VL: B2 VL with K42N, S52F, S93N, F96W, P100Q, D105E
B4: H1H27734P-N297Q: one of "Twelve anti-MSR1 antibodies"; "made with an N297Q single point mutation in human Fcγ portion" (antibody, V domains shown)
VH: EVQLVESRGGLVQPGGSLRLSCAASGFTFSSYAMSWVRQAPGKGLEWVSAISGSGGSTFYADSVKGRFTISRDNSKNTVYLQMNSLRAEDTAVYYCAKALVLRFLEWLGDYWGQGTLVTVSS
VL: DIQMTQSPSTLSASVGDRVTITCRASQSISSWLAWFQQKPGKAPKLLIYKASSLESGVPSRFSGSGSGTEFTLTISSLQPDDFATYYCQQYKSYWTFGQGTKVEIKR
B5: H1H27747P-N297Q (antibody, V domains shown)
VH: QVQLVESGGAVVQPGRSLRLSCAASGFTFSYYGMHWVRQAPGKGLEWVAVISYDGSKKYYADSVKGRFTISRDNSKNTLYLQMNSLRAEDTAVYYCAKDLTVDFYYGMDVWGQGTTVTVSS
VL: B2 VL with A51T, V58A, Y87F, F96Y, P100Q, V104L, D105E
B6: H1H21231N-N297Q: modified version of "21231N (H1H21231N-N297Q) anti-MSR1 antibodies" with "a N297Q single point mutation" (antibody, V domains shown)
VH: EVQLVESGGGLVQPGGSLRLSCAASGFTFSDHYMDWVRQAPGKGLEWVGRTRNKANSHTTEYTASVTGRFTISRDDSRNSLYLQMNSLKTEDTAVYYCVRAGIIGTLFDYWGQGTLVTVSS
VL: DIQMTQFPSSLSASVGDRVTITCRASQSISSFLNWFQQKPGKAPKFLIYAASSLQSGVPSRFSGSGSGTDFTLTISSLQPEDFATYYCQQSYSSPPITFGQGTRLEIKR
B7: H1H27729P-N297Q: anti-MSR1 antibody "made with an N297Q single point mutation in human Fcγ portion" (antibody, V domains shown)
VH: QVQLVESGGGLVKPGGSLRLSCAASGFIFSDYYMSWIRQAPGKGLEWVSYISSSGTTIYGDSVKGRFTMSRDNAKNSLYLQMNSLRAEDTAVYYCARNYALFDYWGQGTLVTVSS
VL: DIQMTQSPSSLSASVGDRVTITCQASQDISKYLNWYQQKPGKAPKLLIYYTSNLETGVPSRFSGSGSGTDFTFTISSLQPEDIATYYCHQSDYLPFTFGPGTKVDIKR

target: T1, PMA-treated THP-1 cells (endogenously expressed human MSR1); assay: Electrochemiluminescence antibody binding assay on MSR1-expressing cells; type: cell-based; settings: not given

Molecule | Ratio of 11 nM Antibody Binding Signal (RLU) to isotype control, PMA-treated THP-1
B1 | 9
B2 | 38
B3 | 66
B4 | 21

system: B16F10.9 cells (MSR1 negative); assay: Flow cytometry binding, MSR1 negative cells; type: cell-based, mouse; settings: 10 μg/mL antibody
Experimental: Relative cell surface binding of the anti-MSR1 antibodies to mouse MSR1 expressing cells was determined by flow cytometry using MSR1 positive RAW264.7 cells (ATCC, Catalog #TIB-71) and MSR1 negative B16F10.9 cells (Lin et al. 1998. PNAS 95:8829-8834). For the assay, cells were plated in PBS without calcium and magnesium (VWR Cat #45000-446) and 2% FBS (Saradigm Cat #1500-500) (Staining Buffer) in 96 well V-bottom plates (Axygen Scientific, Cat #P-96-450-V-C-S). To block binding to Fc receptors, RAW264.7 cells were incubated for 30 minutes at 4° C. with 500 μg/mL mouse IgG (Jackson ImmunoResearch, Cat #015-000-003) diluted in staining buffer, while B16F10.9 cells remained in staining buffer. Following Fc receptor blocking, 10 μg/mL of anti-MSR1 antibodies or an isotype control antibody were added to the cells and were subsequently incubated for 30 minutes on ice. For a positive control, a commercial anti-mouse MSR1 (Sino Biological, Cat #50129-R004) antibody was used, while a rabbit IgG antibody (Thermo Scientific, Cat #26102) was used as a negative control. […] Cells were subsequently washed and fixed using a 50% solution of Cytofix (BD Biosciences, Cat #554655) diluted in PBS. […] The signal to noise (S/N) was determined by calculating the ratio of the anti-MSR1 antibodies or the control antibodies MFI to the unstained sample MFI (Table 11).

Molecule | B16F10.9 MFI
B1 | 3580
B2 | 3688
B3 | 4091
B5 | 3875
B4 | 4505
B6 | 3374
B7 | 3459

target: T2, MSR1-mediated Dil-OxLDL uptake in HEK293.Myc.hMSR1 cells; assay: Ligand uptake assay, Dil-OxLDL; type: cell-based; settings: 10 μg/mL Dil-OxLDL
Experimental: A bioassay was generated to assess the ability of the exemplary anti-MSR1 antibodies to regulate the uptake of certain MSR1 ligands.
Generation of MSR1-expressing cell lines for assay. […] The resulting cell line, referred to here as “HEK293.Myc.hMSR1”, was selected and maintained in DMEM containing 10% FIBS, NEAA, penicillin/streptomycin, L-glutamine, and 100 μg/mL hygromycin.
Ligand uptake assay. […] After 30 minutes, either oxidized or acetylated low-density lipoprotein (LDL) labeled with 1,1′dioctadecyl-3,3,3′,3′-tetramethylindocarbocyanine perchlorate (referred to as “Dil-OxLDL” or “Dil-AcLDL,” respectively) was added to the cells at a constant concentration of 10 μg/mL. […] Results were analyzed using nonlinear regression (4-parameter logistics) with the Prism 7 program to obtain EC50 and IC50 values. The percentage of inhibition was calculated with the Relative Fluorescent Unit (RFU) values by using the following equation: […]
In the equation, “RFUBaseline” is the fluorescence value from the cells treated with 10 μg/mL ligand without antibodies, “RFUInhibition” is the minimum fluorescence value with for a particular antibody with 10 μg/mL ligand, and “RFUBackground” is the fluorescence value from cells without any ligand or antibodies.

Molecule | Dil-Oxidized LDL IC50 | maximum inhibition of Dil-OxLDL uptake
B7 | no inhibition | no inhibition

same assay, conditions: maximum inhibition, 10 μg/mL Dil-OxLDL

Molecule | Dil-Oxidized LDL % Inhibition
B7 | no inhibition

target: T3, MSR1 on differentiated THP-1 cells; assay: Binding and internalization of cell-surface expressed MSR1 in differentiated THP-1 cells; type: cell-based; settings: 10 μg/mL antibody
Experimental: Exemplary anti-MSR1 antibodies were assessed for their ability to bind and internalize MSR1 on MSR1-expressing cells.
The THP-1 cells were allowed to differentiate for 4 days at 37° C. in 5% CO2. […] The remaining two plates were incubated at 37° C. for 1 hour followed by fixation and staining for 20 minutes using a solution of 4% PFA+5 μM DRAQ5 diluted in PBS (internalization plates). After fixation, all plates were washed once with PBS. […] The remaining plates were incubated with PBS only. Confocal images were acquired on the Opera Phenix (Perkin Elmer) at 40× magnification. […] The total binding at 4° C. (RFU values of 4° C. unquenched wells), total binding at 37° C. (RFU values of 37° C. unquenched wells), the total internalized RFU, and % Internalization were determined for each antibody as shown in Table 14.
For all calculations, background fluorescence from unstained wells was subtracted from every well. Total internalized RFU was calculated as follows: Total RFU of 37° C. unquenched samples−Surface RFU at 37° C. Surface RFU is defined as unquenched RFU at 37° C.−quenched RFU at 37° C.)/QE. QE (quenching efficiency) is defined as: 1−(Total RFU of 4° C. quenched sample/Total RFU of 4° C. unquenched sample). The % Internalization was determined from the following formula: (Total internalized RFU at 37° C./Total RFU at 37° C.)*100.

Molecule | % Internalization [%]
B1 | 71.6
B2 | 54.2
B3 | 90.0
B5 | 58.2
B7 | 57.0

same assay, conditions: 10 μg/mL antibody, 4° C.

Molecule | Total Binding at 4° C.
B1 | 3702857
B2 | 1215319
B3 | 3077308
B5 | 2518361
B4 | 482859
B7 | 1930685

same assay, conditions: 10 μg/mL antibody, 37° C.

Molecule | Total Binding at 37° C. | Total Internalized RFU [RFU]
B1 | 5608380 | 4016378
B2 | 1802404 | 977543
B3 | 7161570 | 6446236
B5 | 5917858 | 3444330
B4 | 1151348 | 737425
B7 | 6607625 | 3763127
